Data as given in article PMC10045213.

Target: p75 NeuroTrophin Receptor (UniProt P08138)
Assay: SPR; TrkA immobilized at 8860 RU, p75NTR immobilized at 4320 RU; 1.7-15 nM hNGF R100W flowed over; curves blank subtracted

Chain of UniProt P08138 (P08138 29-427): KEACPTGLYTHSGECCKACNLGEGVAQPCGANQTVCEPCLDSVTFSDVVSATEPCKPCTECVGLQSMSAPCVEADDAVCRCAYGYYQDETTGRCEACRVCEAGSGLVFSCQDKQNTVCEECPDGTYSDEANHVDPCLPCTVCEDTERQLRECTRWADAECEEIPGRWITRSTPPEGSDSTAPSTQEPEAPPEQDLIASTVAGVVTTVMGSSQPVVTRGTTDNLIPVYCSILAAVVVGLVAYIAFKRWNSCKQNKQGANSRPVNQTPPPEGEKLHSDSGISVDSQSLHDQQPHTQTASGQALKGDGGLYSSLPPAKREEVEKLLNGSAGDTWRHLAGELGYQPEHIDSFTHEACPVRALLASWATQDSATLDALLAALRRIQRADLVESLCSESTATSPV

“human NGF R100W (from UniProt P01138 122-241) (ligand)” gave a Kd of 100 nM.
